{"source": "paper PMC10940300", "molecular_target": "preF^C (soluble RSV F A2 prefusion F in the Cav1 background with V185Y, K226Y, N428Y, L512V, L513V and Y519F, before crosslinking) (respiratory syncytial virus (RSV F A2) | not stated) (UniProt P03420)", "assay": "cross-linking; dityrosine crosslinking reaction (Arthromyces ramosus peroxidase and H2O2) of the purified protein; reducing SDS-PAGE (TCEP, 95 °C), Coomassie stain, gel shift from monomer to trimer"}
{"substance": "preF^C (soluble RSV F A2 prefusion F in the Cav1 background with V185Y, K226Y, N428Y, L512V, L513V and Y519F, before crosslinking) (from UniProt P03420 26-109) (natural protein)", "values": [{"measurement": "stoichiometry N", "value": 3}]}
